# Tests used:
# [1] = In vitro release of LENK from NPs / bioconjugate stability in serum; format: in vitro ADME; conditions: diluted male SWISS mouse serum (30% in 5% dextrose), 37°C; RP-HPLC, UV 257 nm
# [2] = system: λ-carrageenan–induced inflammatory pain injected rats; assay: Hargreaves thermal nociception test in λ-carrageenan-induced paw edema model; format: in vivo; conditions: LENK-SQ NPs 20 mg/kg i.v.; morphine 1 mg/kg; rat
structure (smiles),measurement,setting,value
"CC(C)=CCC/C(C)=C/CC/C(C)=C/CC/C=C(\C)CC/C=C(\C)CCC(=O)OCOC(=O)C(CC(C)C)NC(=O)C(Cc1ccccc1)NC(=O)CNC(=O)CNC(=O)C(N)Cc1ccc(O)cc1 (centres unmarked) [LENK-SQ-Diox, Leu-enkephalin-squalene with dioxycarbonyl linker]",Time that the released LENK peptide still lasted in serum,[1],over 10 hours
same,"AUC of PWL time course, comparison between treatments",[2],significantly higher AUC than morphine and LENK-SQ-Am NPs

# Source: PMC6374102 (Science Advances, 2019)
